Measurements as given in the supplement of paper PMC9112550, “Optimization of the antimicrobial peptide Bac7 by deep mutational scanning” (BMC Biology, 2022).

System: Escherichia coli TOP10
Test: shrunken log2 fold change of peptide-encoding DNA abundance (4.5 h post-induction vs induction); higher = less antimicrobial activity (less host growth inhibition)
Conditions: time post-induction: 4.5 h; library: site-saturation at positions 5, 18, 19, 20
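Also: peptides expressed intracellularly from a pBAD plasmid library in pooled LB shake-flask culture, induced with 0.3% L-arabinose, DNA abundance read by NGS, three biological replicates, DESeq2 with apeglm shrinkage.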

Row | Sequence | shrunken log2 fold change
1 | RRIRGRPPRLPRPRPRPTHAPRP | 1.3
2 | RRIRGRPPRLPRPRPRPTHQPRP | 0.615
3 | RRIRGRPPRLPRPRPRPTLEPRP | 1.22
4 | RRIRGRPPRLPRPRPRPTLNPRP | 0.835
5 | RRIRGRPPRLPRPRPRPTMEPRP | 0.751
6 | RRIRGRPPRLPRPRPRPTMPPRP | 0.425
7 | RRIRGRPPRLPRPRPRPTMVPRP | 0.786
8 | RRIRGRPPRLPRPRPRPTPWPRP | 0.848
9 | RRIRGRPPRLPRPRPRPTQSPRP | 1.08
10 | RRIRGRPPRLPRPRPRPTQTPRP | 0.775
11 | RRIRGRPPRLPRPRPRPTRDPRP | 0.965
12 | RRIRGRPPRLPRPRPRPTRHPRP | 0.764
13 | RRIRGRPPRLPRPRPRPTRSPRP | 1.18
14 | RRIRGRPPRLPRPRPRPTSPPRP | 0.491
15 | RRIRGRPPRLPRPRPRPTTMPRP | 0.451
16 | RRIRGRPPRLPRPRPRPTVDPRP | 0.836
17 | RRIRGRPPRLPRPRPRPTVKPRP | 0.642
18 | RRIRGRPPRLPRPRPRPTVQPRP | 0.796
19 | RRIRGRPPRLPRPRPRPTWAPRP | 0.987
20 | RRIRGRPPRLPRPRPRPTWIPRP | 0.25
21 | RRIRGRPPRLPRPRPRPTWQPRP | 0.731
22 | RRIRGRPPRLPRPRPRPTYIPRP | 0.111

Row | Sequence | shrunken log2 fold change
23 | RRIRGRPPRLPRPRPRPTYKPRP | 0.937
24 | RRIRGRPPRLPRPRPRPVACPRP | 0.72
25 | RRIRGRPPRLPRPRPRPVAEPRP | 1.38
26 | RRIRGRPPRLPRPRPRPVAGPRP | 1.12
27 | RRIRGRPPRLPRPRPRPVCSPRP | 0.613
28 | RRIRGRPPRLPRPRPRPVDLPRP | 0.687
29 | RRIRGRPPRLPRPRPRPVDRPRP | 0.297
30 | RRIRGRPPRLPRPRPRPVFQPRP | 0.519
31 | RRIRGRPPRLPRPRPRPVFTPRP | 0.523
32 | RRIRGRPPRLPRPRPRPVFYPRP | -0.0818
33 | RRIRGRPPRLPRPRPRPVGIPRP | 0.414
34 | RRIRGRPPRLPRPRPRPVGQPRP | 0.145
35 | RRIRGRPPRLPRPRPRPVGWPRP | 1.26
36 | RRIRGRPPRLPRPRPRPVHLPRP | 0.034
37 | RRIRGRPPRLPRPRPRPVIVPRP | 0.626
38 | RRIRGRPPRLPRPRPRPVKRPRP | 0.248
39 | RRIRGRPPRLPRPRPRPVMEPRP | 0.546
40 | RRIRGRPPRLPRPRPRPVMYPRP | 0.237
41 | RRIRGRPPRLPRPRPRPVNPPRP | 0.127
42 | RRIRGRPPRLPRPRPRPVPDPRP | 0.958
43 | RRIRGRPPRLPRPRPRPVQIPRP | 0.335
44 | RRIRGRPPRLPRPRPRPVQLPRP | 0.0748

Row | Sequence | shrunken log2 fold change
45 | RRIRGRPPRLPRPRPRPVRKPRP | 1.72
46 | RRIRGRPPRLPRPRPRPVRQPRP | 0.883
47 | RRIRGRPPRLPRPRPRPVRSPRP | 0.902
48 | RRIRGRPPRLPRPRPRPVSDPRP | 1.26
49 | RRIRGRPPRLPRPRPRPVSEPRP | 0.797
50 | RRIRGRPPRLPRPRPRPVSFPRP | 0.392
51 | RRIRGRPPRLPRPRPRPVSKPRP | 0.276
52 | RRIRGRPPRLPRPRPRPVTDPRP | 0.394
53 | RRIRGRPPRLPRPRPRPVVAPRP | 1.19
54 | RRIRGRPPRLPRPRPRPVWNPRP | 0.0596
55 | RRIRGRPPRLPRPRPRPWAPPRP | 0.452
56 | RRIRGRPPRLPRPRPRPWDKPRP | 0.067
57 | RRIRGRPPRLPRPRPRPWETPRP | 0.272
58 | RRIRGRPPRLPRPRPRPWEYPRP | -0.00088
59 | RRIRGRPPRLPRPRPRPWGWPRP | 1.15
60 | RRIRGRPPRLPRPRPRPWHLPRP | -0.188
61 | RRIRGRPPRLPRPRPRPWIAPRP | -0.0596
62 | RRIRGRPPRLPRPRPRPWILPRP | 0.112
63 | RRIRGRPPRLPRPRPRPWIYPRP | -0.372
64 | RRIRGRPPRLPRPRPRPWKNPRP | -0.138
65 | RRIRGRPPRLPRPRPRPWKQPRP | 0.152
66 | RRIRGRPPRLPRPRPRPWLTPRP | 0.134

Row | Sequence | shrunken log2 fold change
67 | RRIRGRPPRLPRPRPRPWMHPRP | -0.00858
68 | RRIRGRPPRLPRPRPRPWMIPRP | 0.268
69 | RRIRGRPPRLPRPRPRPWMTPRP | 0.034
70 | RRIRGRPPRLPRPRPRPWNEPRP | -0.14
71 | RRIRGRPPRLPRPRPRPWNGPRP | 0.0616
72 | RRIRGRPPRLPRPRPRPWPQPRP | 0.498
73 | RRIRGRPPRLPRPRPRPWPTPRP | 0.233
74 | RRIRGRPPRLPRPRPRPWRGPRP | 0.228
75 | RRIRGRPPRLPRPRPRPWRRPRP | 0.054
76 | RRIRGRPPRLPRPRPRPWSIPRP | -0.108
77 | RRIRGRPPRLPRPRPRPWTHPRP | -0.0708
78 | RRIRGRPPRLPRPRPRPWTQPRP | 0.236
79 | RRIRGRPPRLPRPRPRPWVCPRP | 0.0844
80 | RRIRGRPPRLPRPRPRPWVSPRP | -0.0322
81 | RRIRGRPPRLPRPRPRPWVVPRP | 0.273
82 | RRIRGRPPRLPRPRPRPWWEPRP | 0.0256
83 | RRIRGRPPRLPRPRPRPWWQPRP | 0.644
84 | RRIRGRPPRLPRPRPRPYADPRP | 0.0582
85 | RRIRGRPPRLPRPRPRPYAEPRP | 1.19
86 | RRIRGRPPRLPRPRPRPYDGPRP | -0.387
87 | RRIRGRPPRLPRPRPRPYDHPRP | -0.181
88 | RRIRGRPPRLPRPRPRPYECPRP | -0.075

Row | Sequence | shrunken log2 fold change
89 | RRIRGRPPRLPRPRPRPYFFPRP | 0.0463
90 | RRIRGRPPRLPRPRPRPYFKPRP | -0.366
91 | RRIRGRPPRLPRPRPRPYHEPRP | 0.182
92 | RRIRGRPPRLPRPRPRPYHGPRP | -0.459
93 | RRIRGRPPRLPRPRPRPYHLPRP | -1.27
94 | RRIRGRPPRLPRPRPRPYHRPRP | -0.203
95 | RRIRGRPPRLPRPRPRPYKAPRP | -0.354
96 | RRIRGRPPRLPRPRPRPYKHPRP | -0.463
97 | RRIRGRPPRLPRPRPRPYLKPRP | -0.0688
98 | RRIRGRPPRLPRPRPRPYLPPRP | -0.204
99 | RRIRGRPPRLPRPRPRPYMAPRP | -0.388
100 | RRIRGRPPRLPRPRPRPYMTPRP | 0.109
101 | RRIRGRPPRLPRPRPRPYNDPRP | -0.155
102 | RRIRGRPPRLPRPRPRPYNEPRP | -0.329
103 | RRIRGRPPRLPRPRPRPYNSPRP | -0.359
104 | RRIRGRPPRLPRPRPRPYPMPRP | -0.142
105 | RRIRGRPPRLPRPRPRPYPQPRP | 0.12
106 | RRIRGRPPRLPRPRPRPYQHPRP | -0.376
107 | RRIRGRPPRLPRPRPRPYTYPRP | -0.0842
108 | RRIRGRPPRLPRPRPRPYVCPRP | -0.00206
109 | RRIRGRPPRLPRPRPRPYVMPRP | -0.0513
